Kd, koff and kon data for 12 molecules are collected here from patent US20210292423A1 (published 2021).

In test [1] the target is T1, human CD3ε/δ-Fc fusion protein (soluble recombinant CD3ε/δ complex) (human, UniProt P04234 22-105).
T1 construct: also called huCD3ε/δ; huCD3; not shown: hinge, CH2, CH3 of human IgG with tag
The test can be described thus: SPR Biacore, Fab. On the procedure:
(§1) Binding affinities of anti-CD3 binding Fabs or CODV-Fabs were measured by surface plasmon resonance (SPR) using a Biacore3000 instrument (GE Healthcare). Assay buffer was HBS-EP (BR-1001-88, GE Healthcare). Capture of CD3ε/δ-Fc fusion proteins was achieved using the human antibody capture kit (GE Healthcare). […] The CD3εδ-Fc fusions proteins were captured at 10 μl/min to approx. 70 RU to yield Rmax values of 30 RU. Binding kinetics with the anti-CD3 Fabs or CODV-Fabs was measured at 30 μl/min for 240 sec. and 600 sec. for association and dissociation phase, respectively. Twofold dilutions of Fabs from 3 to 400 nM in assay buffer were used. All Fab concentrations were run in duplicate together with duplicate buffer blanks for double referencing. Regeneration of the capture surface was performed with a 1 min injection of 3M MgCl2 solution at 30 μl/min. For data analysis the BIAevaluation software v.4.1 (GE Healthcare) was used. Data were fit globally using a 1:1 Langmuir model with mass transfer.

The target of test [2] is T1, human CD3ε/δ-Fc fusion protein (soluble …). The test can be described thus: SPR Biacore, CODV-Fab on recombinant CD3ε/δ. The procedure: as §1
(In general: Surface plasmon resonance follows binding to a sensor surface in real time, without labels.)

T1 sequence (chain, as listed by the source mutant, chain 1 of 2): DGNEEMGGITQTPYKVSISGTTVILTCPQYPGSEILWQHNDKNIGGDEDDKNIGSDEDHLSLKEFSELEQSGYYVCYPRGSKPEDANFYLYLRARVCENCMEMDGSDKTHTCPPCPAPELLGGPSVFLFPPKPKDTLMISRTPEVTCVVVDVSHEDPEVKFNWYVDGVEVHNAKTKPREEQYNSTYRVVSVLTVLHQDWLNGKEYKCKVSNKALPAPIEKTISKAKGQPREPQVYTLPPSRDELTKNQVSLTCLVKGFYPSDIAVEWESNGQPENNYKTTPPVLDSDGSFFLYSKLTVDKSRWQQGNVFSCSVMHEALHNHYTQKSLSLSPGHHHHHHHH
T1 sequence (P04234 22-105, stated change not applied, chain 2 of 2): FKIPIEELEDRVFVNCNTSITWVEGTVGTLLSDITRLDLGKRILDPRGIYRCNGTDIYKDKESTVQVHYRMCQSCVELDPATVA

B1: humanized 4B4 Fab 4B4_6 (VL1a, VH1A) (Fab, V domains shown)
VH: QVQLVETGGGLVKPGQSLKLTCATSGFTFSNAWMHWVRQSPEKGLEWVAQIKARSNNYATYYAESVKGRFTISRDDSKSTIYLQMNSLTPEDTAIYYCRGTYYASKPFDYWGQGVMVTVSS
VL: DVVMTQTPVSLSVSVGGRVSISCRSSQSLVHDNGNTYLSWSLQKPGKSPKVLIYKVSNRFSGVSSRFTGSGSGTDFTLKISSVQPDDLGVYYCGQGTQYPFTFGSGTKLEIK
notes: expressed as Fab-fragment
With B1, in test [1], the Kd was determined as 1.24 nM, the off-rate (koff) was 0.00185 s⁻¹ and the kon was found to be 1.5e+06 M⁻¹ s⁻¹.

B2: humanized 4B4 Fab 4B4_17 (VL2A, VH2B) (Fab, V domains shown)
VH: EVQLVETGGGLVQPGGSLKLTCATSGFTFSNAWMHWVRQSPEKGLEWVAQIKARSNNYATYYADSVKGRFTISRDDSKSTIYLQMNSLRAEDTAIYYCRGTYYASKPFDYWGQGVMVTVSS
VL: DVVMTQTPVSLSVSPGGPVSISCRSSQSLVHDNGNTYLSWSLQKPGQSPQVLIYKVSNRFSGVSDRFTGSGSGTDFTLKISRVEPDDLGVYYCGQGTQYPFTFGSGTKLEIK
notes: expressed as Fab-fragment
Consider B2, for which, in test [1], the dissociation constant (Kd) is 8.91 nM, the koff was found to be 0.00276 s⁻¹ and the kon turned out to be 310000 M⁻¹ s⁻¹.

B3: humanized 4B4 Fab 4B4_9 (VL2B, VH2A) (Fab, V domains shown)
VH: EVQLVETGGGLVQPGGSLKLTCATSGFTFSNAWMHWVRQSPEKGLEWVAQIKARSNNYATYYAESVKGRFTISRDDSKSTIYLQMNSLRAEDTAIYYCRGTYYASKPFDYWGQGVMVTVSS
VL: DVVMTQTPVSLSVSPGGPVSISCRSSQSLVHDNANTYLSWSLQKPGQSPQVLIYKVSNRFSGVSDRFTGSGSGTDFTLKISRVEPDDLGVYYCGQGTQYPFTFGSGTKLEIK
notes: expressed as Fab-fragment
Regarding B3, in test [1], the Kd turned out to be 13.4 nM, the koff was 0.00291 s⁻¹ and the kon was found to be 218000 M⁻¹ s⁻¹.

B4: humanized 4B4 Fab 4B4_2 (VL1b, VH1B) (Fab, V domains shown)
VH: QVQLVETGGGLVKPGQSLKLTCATSGFTFSNAWMHWVRQSPEKGLEWVAQIKARSNNYATYYAVSVKGRFTISRDDSKSTIYLQMNSLTPEDTAIYYCRGTYYASKPFDYWGQGVMVTVSS
VL: DVVMTQTPVSLSVSVGGRVSISCRSSQSLVHDNANTYLSWSLQKPGKSPKVLIYKVSNRFSGVSSRFTGSGSGTDFTLKISSVQPDDLGVYYCGQGTQYPFTFGSGTKLEIK
notes: expressed as Fab-fragment
As for B4, in test [1], the Kd turned out to be 7.48 nM, the koff was determined as 0.00214 s⁻¹ and the on-rate constant (kon) was 286000 M⁻¹ s⁻¹.

B5: humanized 4B4 Fab 4B4_7 (VL1b, VH1A) (Fab, V domains shown)
VH: QVQLVETGGGLVKPGQSLKLTCATSGFTFSNAWMHWVRQSPEKGLEWVAQIKARSNNYATYYAESVKGRFTISRDDSKSTIYLQMNSLTPEDTAIYYCRGTYYASKPFDYWGQGVMVTVSS
VL: DVVMTQTPVSLSVSVGGRVSISCRSSQSLVHDNANTYLSWSLQKPGKSPKVLIYKVSNRFSGVSSRFTGSGSGTDFTLKISSVQPDDLGVYYCGQGTQYPFTFGSGTKLEIK
notes: expressed as Fab-fragment
Consider B5, for which, in test [1], the Kd turned out to be 8.1 nM, the off-rate (koff) was 0.00248 s⁻¹ and the on-rate constant (kon) stood at 306000 M⁻¹ s⁻¹.

B6: humanized 4B4 Fab 4B4_1 (VL1a, VH1B) (Fab, V domains shown)
VH: QVQLVETGGGLVKPGQSLKLTCATSGFTFSNAWMHWVRQSPEKGLEWVAQIKARSNNYATYYAVSVKGRFTISRDDSKSTIYLQMNSLTPEDTAIYYCRGTYYASKPFDYWGQGVMVTVSS
VL: DVVMTQTPVSLSVSVGGRVSISCRSSQSLVHDNGNTYLSWSLQKPGKSPKVLIYKVSNRFSGVSSRFTGSGSGTDFTLKISSVQPDDLGVYYCGQGTQYPFTFGSGTKLEIK
notes: expressed as Fab-fragment
Regarding B6, in test [1], the Kd was determined as 2.77 nM, the koff amounted to 0.00174 s⁻¹ and the on-rate (kon) was determined as 628000 M⁻¹ s⁻¹.

B7: humanized 4B4 Fab 4B4_10 (VL1_CM2, VH6_BM2) (Fab, V domains shown)
VH: QVQLVESGGRVVQPGRSLRLTCAASGFTFSNAWMHWVRQAPGKQLEWVAQIKARSNNYATYYAESVKGRFTISRDDSKSTIYLQMNSLRAEDTAVYYCRGTYYASKPFDYWGQGTTVTVSS
VL: DVVMTQSPLSLSVTLGQPVSISCRSSQSLVHDNGNTYLSWSLQRPGQSPRVLIYKVSNRFSGVPDRFSGSGSGTDFTLKISRVEAEDVGVYYCGQGTQYPFTFGSGTKLEIK
As to B7, in test [1], the Kd is 9.19 nM, the koff was found to be 0.00399 s⁻¹ and the on-rate constant (kon) came to 434000 M⁻¹ s⁻¹.

B8: humanized 4B4 Fab 4B4_20 (VL2F, VH6C) (Fab, V domains shown)
VH: QVQLVESGGGVVQPGRSLRLSCAASGFTFSNAWMHWVRQAPGKQLEWVAQIKARSNNYATYYADSVKGRFTISRDDSKSTLYLQMNSLRAEDTAVYYCRGTYYASKPFDYWGQGTLVTVSS
VL: DIVMTQTPLSLSVTPGQPASISCKSSQSLVHDNANTYLSWYLQKPGQSPQSLIYKVSNRFSGVPDRFSGSGSGTDFTLKISRVEAEDVGVYYCGQGTQYPFTFGSGTKVEIK
notes: expressed as Fab-fragment
In the case of B8, in test [1], the Kd worked out at 33.5 nM, the koff turned out to be 0.00171 s⁻¹ and the kon turned out to be 50900 M⁻¹ s⁻¹.

B9: humanized 4B4 Fab 4B4_5 (VL2C, VH6D) (Fab, V domains shown)
VH: QVQLVESGGGVVQPGRSLRLSCATSGFTFSNAWMHWVRQAPGKQLEWVAQIKARSNNYATYYADSVKGRFTISRDDSKSTIYLQMNSLRAEDTAVYYCRGTYYASKPFDYWGQGTLVTVSS
VL: DIVMTQTPLSLSVTPGQPASISCKSSQSLVHDNGNTYLSWSLQKPGQSPQVLIYKVSNRFSGVPDRFSGSGSGTDFTLKISRVEAEDVGVYYCGQGTQYPFTFGSGTKLEIK
notes: expressed as Fab-fragment
Take B9: in test [1], the Kd is 18.2 nM, the koff came out at 0.00423 s⁻¹ and the kon came to 233000 M⁻¹ s⁻¹.

B10: CODV-Fab 7G3 × 20G6 with humanized 20G6 VL1D_VH1B (bispecific antibody)
light: DIVMTQTPLSLSVTPGQPASISCKSSQSLVHNNGNTYLSWYLQKPGQSPQSLIYKVSNRFSGVPDRFSGSGSGTDFTLKISRVEAEDVGVYYCGQGTQYPFTFGSGTKVEIKGQPKAAPDFVMTQSPSSLTVTAGEKVTMSCKSSQSLLNSGNQKNYLTWYLQKPGQPPKLLIYWASTRESGVPDRFTGSGSGTDFTLTISSVQAEDLAVYYCQNDYSYPYTFGGGTKLEIKTKGPSRTVAAPSVFIFPPSDEQLKSGTASVVCLLNNFYPREAKVQWKVDNALQSGNSQESVTEQDSKDSTYSLSSTLTLSKADYEKHKVYACEVTHQGLSSPVTKSFNRGEC
heavy: EVQLQQSGPELVKPGASVKMSCKASGYTFTDYYMKWVKQSHGKSLEWIGDIIPSNGATFYNQKFKGKATLTVDRSSSTAYMHLNSLTSEDSAVYYCTRSHLLRASWFAYWGQGTLVTVSASQVQLVESGGGVVQPGRSLRLSCAASGFTFTKAWMHWVRQAPGKQLEWVAQIKDKSNSYATYYADSVKGRFTISRDNSKNTLYLQMNSLRAEDTAVYYCRGVYYALSPFDYWGQGTLVTVSSRTASTKGPSVFPLAPSSKSTSGGTAALGCLVKDYFPEPVTVSWNSGALTSGVHTFPAVLQSSGLYSLSSVVTVPSSSLGTQTYICNVNHKPSNTKVDKKVEPKSCDKTHTHHHHHH
Consider B10, for which, in test [2], the Kd turned out to be 58.7 nM, the off-rate (koff) came out at 0.00109 s⁻¹ and the kon turned out to be 18600 M⁻¹ s⁻¹.

B11: CODV-Fab 7G3 × 20G6 with humanized 20G6 VL1A_VH1A (bispecific antibody)
light: DIVMTQTPLSLSVTPGQPASISCKSSQSLVHNNGNTYLSWYLQKPGQSPQLLIYKVSNRFSGVPDRFSGSGSGTDFTLKISRVEAEDVGVYYCGQGTQYPFTFGQGTKLEIKGQPKAAPDFVMTQSPSSLTVTAGEKVTMSCKSSQSLLNSGNQKNYLTWYLQKPGQPPKLLIYWASTRESGVPDRFTGSGSGTDFTLTISSVQAEDLAVYYCQNDYSYPYTFGGGTKLEIKTKGPSRTVAAPSVFIFPPSDEQLKSGTASVVCLLNNFYPREAKVQWKVDNALQSGNSQESVTEQDSKDSTYSLSSTLTLSKADYEKHKVYACEVTHQGLSSPVTKSFNRGEC
heavy: EVQLQQSGPELVKPGASVKMSCKASGYTFTDYYMKWVKQSHGKSLEWIGDIIPSNGATFYNQKFKGKATLTVDRSSSTAYMHLNSLTSEDSAVYYCTRSHLLRASWFAYWGQGTLVTVSASQVQLVESGGGVVQPGRSLRLSCAASGFTFTKAWMHWVRQAPGKGLEWVAQIKDKSNSYATYYADSVKGRFTISRDNSKNTLYLQMNSLRAEDTAVYYCRGVYYALSPFDYWGQGTLVTVSSRTASTKGPSVFPLAPSSKSTSGGTAALGCLVKDYFPEPVTVSWNSGALTSGVHTFPAVLQSSGLYSLSSVVTVPSSSLGTQTYICNVNHKPSNTKVDKKVEPKSCDKTHTHHHHHH
With B11, in test [2], the dissociation constant Kd was 152 nM, the koff worked out at 0.00434 s⁻¹ and the on-rate constant (kon) amounted to 28600 M⁻¹ s⁻¹.

B12: CODV-Fab 7G3 × 20G6 with humanized 20G6 VL1B_VH1A (bispecific antibody)
light: DIVMTQTPLSLSVTPGQPASISCKSSQSLVHNNGNTYLSWYLQKPGQSPQLLIYKVSNRFSGVPDRFSGSGSGTDFTLKISRVEAEDVGVYYCGQGTQYPFTFGGGTKVEIKGQPKAAPDFVMTQSPSSLTVTAGEKVTMSCKSSQSLLNSGNQKNYLTWYLQKPGQPPKLLIYWASTRESGVPDRFTGSGSGTDFTLTISSVQAEDLAVYYCQNDYSYPYTFGGGTKLEIKTKGPSRTVAAPSVFIFPPSDEQLKSGTASVVCLLNNFYPREAKVQWKVDNALQSGNSQESVTEQDSKDSTYSLSSTLTLSKADYEKHKVYACEVTHQGLSSPVTKSFNRGEC
heavy: EVQLQQSGPELVKPGASVKMSCKASGYTFTDYYMKWVKQSHGKSLEWIGDIIPSNGATFYNQKFKGKATLTVDRSSSTAYMHLNSLTSEDSAVYYCTRSHLLRASWFAYWGQGTLVTVSASQVQLVESGGGVVQPGRSLRLSCAASGFTFTKAWMHWVRQAPGKGLEWVAQIKDKSNSYATYYADSVKGRFTISRDNSKNTLYLQMNSLRAEDTAVYYCRGVYYALSPFDYWGQGTLVTVSSRTASTKGPSVFPLAPSSKSTSGGTAALGCLVKDYFPEPVTVSWNSGALTSGVHTFPAVLQSSGLYSLSSVVTVPSSSLGTQTYICNVNHKPSNTKVDKKVEPKSCDKTHTHHHHHH
Take B12: in test [2], the equilibrium dissociation constant (Kd) worked out at 138 nM, the off-rate (koff) was 0.00414 s⁻¹ and the kon amounted to 29900 M⁻¹ s⁻¹.

Usually Kd stands for the constant that tells how readily two partners part at equilibrium. The term koff denotes the rate constant with which the complex falls apart. In general, kon refers to the rate constant with which the complex forms.
